In the supplement of paper PMC12042874:
± gives the uncertainty stated by the source.

Experiment: amyloid nucleation score (Sup35N fusion, yeast selection) (log enrichment); library NNK3; higher = more nucleation; inactive = no reads after selection
Procedure, shortened: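 The nucleation score is the log enrichment of output over input reads, calculated with DiMSum and centred on the mode score of non-aggregating sequences. Sequences with under 100 input reads were excluded. Reads came from Illumina sequencing of plasmid inserts from psi-negative yeast expressing Sup35N fused to peptides of 20 random codons, induced 24 hours with 100 μM copper sulfate and grown 7 days at 30°C without adenine and uracil.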

FSIRDSTTLKVPEECLSTWI
amyloid nucleation score: inactive

FSKFQTYVSHMVVYGIMSGN
amyloid nucleation score: inactive

FSKIHI
amyloid nucleation score: inactive

FSLDVDDGVFS
amyloid nucleation score: inactive

FSLRVGMKVHISKIRLGCCK
amyloid nucleation score: inactive

FSLTLCWHWSWVQCAGVPWG
amyloid nucleation score: 2.05 ± 0.097

FSMAFYMYG
amyloid nucleation score: 0.163 ± 0.25

FSMWCVSCN
amyloid nucleation score: inactive

FSNGMVLFF
amyloid nucleation score: inactive

FSNVRDFGFGKDY
amyloid nucleation score: inactive

FSPCISDCGVDESIKVLRKM
amyloid nucleation score: inactive

FSPTIGTTWDTLMF
amyloid nucleation score: inactive

FSRFSNAFPKNCWVLLVENS
amyloid nucleation score: inactive

FSSNTT
amyloid nucleation score: inactive

FSSSPR
amyloid nucleation score: inactive

FSVMYRWRYFGDSAFWISVF
amyloid nucleation score: inactive

FSVSASEKHFFSCVMLYCVS
amyloid nucleation score: 0.935 ± 0.1

FSYCDGRLLSSNRYYSESLY
amyloid nucleation score: inactive

FSYCSLWGKCVCDIFTNGQL
amyloid nucleation score: 2.81 ± 0.051

FTAQRGSTCHPYVRKHEYI
amyloid nucleation score: inactive

FTAWTLLLSGMFVIASANMA
amyloid nucleation score: inactive

FTCDTMKYSSRYSLFYVRVS
amyloid nucleation score: 0.205 ± 0.77

FTNNI
amyloid nucleation score: inactive

FTPDVRWLNVLNSHNGVIEV
amyloid nucleation score: inactive

FTYGMSSVFVGHF
amyloid nucleation score: inactive

FVAVVSRDISNYSRGRSEKR
amyloid nucleation score: inactive

FVERTRKRVNVRRNRHVTET
amyloid nucleation score: inactive

FVFCLEGTGGVFDFGFGIGI
amyloid nucleation score: inactive

FVLHNS
amyloid nucleation score: inactive

FVLIIYLLACSEMLFVFKEV
amyloid nucleation score: inactive

FVLRTNWGGISVYIYDVCSC
amyloid nucleation score: -0.238 ± 1.1

FVNCLCKRARYYSSGGLSSP
amyloid nucleation score: -0.512 ± 1.4

FVSYRESKKDMQACCALCRS
amyloid nucleation score: 0.965 ± 0.11

FVVVHLSVKSIVPAFVSWDR
amyloid nucleation score: -0.36 ± 0.84

FVVYL
amyloid nucleation score: inactive

FVWNMFSASLIKI
amyloid nucleation score: inactive

FVYWNLSAYVRILVVDGNGR
amyloid nucleation score: inactive

FWCIGEIRCTYMWRSQCFCV
amyloid nucleation score: inactive

FWGFAFPFTSHGGPKNLEES
amyloid nucleation score: inactive

FWGFPRKSYADMMGSTRGSA
amyloid nucleation score: inactive

FWGMLVEYLVNSQCYIKFE
amyloid nucleation score: inactive

FWGWLARTNLKILSILFNLI
amyloid nucleation score: inactive

FWLRAVSLSWLMIEKKYMLR
amyloid nucleation score: inactive

FWMILMDMLFMRLGSL
amyloid nucleation score: inactive

FWMRFKHDW
amyloid nucleation score: 1.29 ± 0.16

FWSSFAMRAYSVIWYTLSTC
amyloid nucleation score: inactive

FWYFYSKEFTRQDLVDLNVM
amyloid nucleation score: inactive

FYCLHSMLKMGEDVRAMNLD
amyloid nucleation score: inactive

FYDAWRIFLSYFRLSLLTNV
amyloid nucleation score: inactive

FYFYSVCYYGRWIKKPCHLR
amyloid nucleation score: inactive

FYGECKSVSGNCLTMNGRYT
amyloid nucleation score: -0.561 ± 0.59

FYIKVVNPCIPYT
amyloid nucleation score: inactive

FYKVYSVRLEHFCKCGIECN
amyloid nucleation score: inactive

FYNRPKWLFVLGPENILCDS
amyloid nucleation score: inactive

FYRSFSPSYNLYMYGIYDR
amyloid nucleation score: 2.77 ± 0.067

FYSCKSTAGCSTTIEGARNY
amyloid nucleation score: inactive

FYSTAMCGED
amyloid nucleation score: inactive

FYTWLPCVYSN
amyloid nucleation score: -0.335 ± 1.7

FYYDRVTLRGNTNLGDLMHG
amyloid nucleation score: 1.69 ± 0.076

FYYIVIFSNHWPSCILCRGR
amyloid nucleation score: 0.792 ± 0.28

FYYSWSVFCICMYR
amyloid nucleation score: inactive

GAGCNVVAAATARSRDGDWS
amyloid nucleation score: 0.212 ± 0.93

GAHWNASSHICGRKD
amyloid nucleation score: inactive

GALAKFLLISKTMRVDMRMV
amyloid nucleation score: inactive

GAMWLSCT
amyloid nucleation score: inactive

GANSGFRGIDGLLPALDKQE
amyloid nucleation score: inactive

GASLYWIP
amyloid nucleation score: 0.234 ± 0.88

GCCFLVILWMKYDCYLGDQV
amyloid nucleation score: inactive

GCFDVPNCVSFQSFRACGKG
amyloid nucleation score: inactive

GCFSSSESTIWGGAVDAKVS
amyloid nucleation score: inactive

GCHLVSCRRTGAL
amyloid nucleation score: inactive

GCKLIEWDVLIVDPMPARGR
amyloid nucleation score: inactive

GCNHC
amyloid nucleation score: inactive

GCREICFNLCFKRSLTCALL
amyloid nucleation score: inactive

GCRNVVCVVDGFSVM
amyloid nucleation score: inactive

GCSWLFSSLCFLGDNALGST
amyloid nucleation score: inactive

GCYEGMLVIFLVFWLVVVYP
amyloid nucleation score: inactive

GDTAPNSSTISLTVFFPLFA
amyloid nucleation score: 0.697 ± 0.21

GEDVGPCMTESCRYAYLRYT
amyloid nucleation score: inactive

GELPLRVKVKSFHTDTSLRT
amyloid nucleation score: inactive

GEMVFGVVWIVELETFCIPI
amyloid nucleation score: inactive

GFAYESQAA
amyloid nucleation score: inactive

GFFELYS
amyloid nucleation score: inactive

GFFFSLFYWNHFRGMTRQRF
amyloid nucleation score: 0.973 ± 0.2

GFGESGNR
amyloid nucleation score: inactive

GFGQATTCLSLNSACF
amyloid nucleation score: 0.544 ± 0.18

GFHLGFHGWNCKLAK
amyloid nucleation score: -0.349 ± 0.49

GFLESCENLVQFKRARWSNI
amyloid nucleation score: inactive

GFNVTWFEIYGGLEDSWWFC
amyloid nucleation score: inactive

GFRRRSMDALSVTVDSVVAP
amyloid nucleation score: inactive

GFRYALHSLIDR
amyloid nucleation score: inactive

GFRYSLLSSRSFYWHRSPSM
amyloid nucleation score: inactive

GFSYVVNYVFFTDVKNTAAL
amyloid nucleation score: 2.17 ± 0.076

GFVNSVRFDLIECDVLKRSN
amyloid nucleation score: inactive

GGARL
amyloid nucleation score: inactive

GGCGGVKHAHYNTIEY
amyloid nucleation score: inactive

GGCGMDV
amyloid nucleation score: inactive

GGLHSGVGKMAYELNMYS
amyloid nucleation score: inactive

GGLYKYKNRTRLFMSWRVSR
amyloid nucleation score: inactive

GGNGVPRVWSVFIRRVWNSV
amyloid nucleation score: inactive

GGNLFSSVS
amyloid nucleation score: inactive

GGNVCRGVKIIVMWAMIFVM
amyloid nucleation score: inactive

GGSEGQSVPAC
amyloid nucleation score: -0.241 ± 1.5

GGSSYTYHNSVDLLDWFCYV
amyloid nucleation score: 1.23 ± 0.11

GGSVWWY
amyloid nucleation score: inactive

GGTAHNIGCVSRLVMPARGI
amyloid nucleation score: inactive

GGWSARYTNCNLYYTEASGP
amyloid nucleation score: 0.857 ± 0.18

GHIKWGNCSSYVSGFKLTCG
amyloid nucleation score: inactive

GHWTLDYEFKYPYGQQYHVP
amyloid nucleation score: inactive

GIASFECGDSCKSVN
amyloid nucleation score: inactive

GIFCGLTGLIDGMRTQHSEL
amyloid nucleation score: 0.816 ± 0.12

GIGRDCNVSGALCQRAVANV
amyloid nucleation score: inactive

GIIMPKSRLVPTWTQSRSCC
amyloid nucleation score: inactive

GILCCAL
amyloid nucleation score: inactive

GIMVSWIVGFMLCSILRMGD
amyloid nucleation score: inactive

GINHNGRVECNRFKMNY
amyloid nucleation score: inactive

GISRYFYSMCETWMNCHSGV
amyloid nucleation score: 0.793 ± 0.28

GIVRSVCYVNGCVLDHEVGI
amyloid nucleation score: inactive

GIVTLSA
amyloid nucleation score: inactive

GIYGRTGHSYVF
amyloid nucleation score: inactive

GIYRYVQGWHDAPHGGNCTE
amyloid nucleation score: inactive

GKDKLEGKEGGVSCDGNLRP
amyloid nucleation score: inactive

GKDSGDCTRIRLGV
amyloid nucleation score: 1.2 ± 0.14

GKGCYLVVCDYTTCTKFLNM
amyloid nucleation score: inactive

GKKMKEGCSSNISIVELSRN
amyloid nucleation score: inactive

GKTNNLLSFFSKTPLTFSCL
amyloid nucleation score: inactive

GKYCLNDSCPFHY
amyloid nucleation score: inactive

GLCKS
amyloid nucleation score: inactive

GLDRI
amyloid nucleation score: inactive

GLDTAR
amyloid nucleation score: inactive

GLERLMDPLGNHRVRGDRVG
amyloid nucleation score: inactive

GLHLYEFRGRCNTSVDSQTK
amyloid nucleation score: inactive

GLKLCCV
amyloid nucleation score: inactive

GLKNV
amyloid nucleation score: -0.431 ± 0.8

GLLLVIFNGFGFNDYEEFGM
amyloid nucleation score: inactive

GLMLYTSMVGSYDDWPD
amyloid nucleation score: inactive

GLNMPLSFSPKRRHFVREWK
amyloid nucleation score: inactive

GLSHESTYKEEFESSATSGV
amyloid nucleation score: inactive

GLVVVT
amyloid nucleation score: inactive

GLVVWKNGINWLSEGVTIAR
amyloid nucleation score: 0.567 ± 0.25

GLVWTW
amyloid nucleation score: -0.01 ± 0.48

GLVYNNIWISLYFNGATVES
amyloid nucleation score: 2.08 ± 0.06

GMAEFALQWIRMIGRL
amyloid nucleation score: 0.214 ± 0.45

GMAVVLSLAPAGRKRTTTNV
amyloid nucleation score: inactive

GMCWVDFVNNTASCVWFPLC
amyloid nucleation score: inactive

GMDCNKIRLASSWVYYLTSE
amyloid nucleation score: inactive

GMLGLMAGKNLEGADRL
amyloid nucleation score: inactive

GMRSLDMRWAGVMYVHRRRL
amyloid nucleation score: inactive

GMRSSLNIDAFGSGAELMHW
amyloid nucleation score: inactive

GMSSLIGIDMNLSEKFGYPY
amyloid nucleation score: inactive

GMVWFRFLKYAKC
amyloid nucleation score: -1.54 ± 2.4

GNCTSVLDPSELVVYHCEGS
amyloid nucleation score: inactive

GNFESVSDRKFSISFHCWHS
amyloid nucleation score: inactive

GNIAELVSGREVYNYVN
amyloid nucleation score: -0.075 ± 0.9

GNIEGVRNVVALTMHVVNWV
amyloid nucleation score: 2.2 ± 0.091

GNITTRLHFFTNGFRPSFHG
amyloid nucleation score: inactive

GNNCPRVSIFNREAKIDNVL
amyloid nucleation score: inactive

GNTFLWCGRVDSYSTHSYLC
amyloid nucleation score: inactive

GNVQFCRFFFDMSSLHDIMT
amyloid nucleation score: inactive
